Reference: patent publication US20200023080A1, “COMPOSITIONS AND METHOD FOR THE TREATMENT AND DETECTION OF COLON CANCER” (priority 2015, published 2020)
Positions of bridges follow the written chain, without caps; N, C: chain ends. Non-standard residues stand in square brackets, D forms with d. No end group written: not given here. Cy5.5 = cyanine dye Cy5.5, conjugated via NHS ester; Cy3 = cyanine dye Cy3, conjugated via NHS ester

Legend:
[1] = target: T1, cell membranes isolated from rat intestinal tissues (Rattus norvegicus, UniProt P23897); assay: Binding of Cy3/Cy5.5 probes to cell membranes from rat intestinal tissues
T1 construct: cell membranes isolated from T84 cells and from rat intestinal tissues; from tissue; host or cells: rat intestinal tissue membranes
T1 sequence (P23897 23-1072): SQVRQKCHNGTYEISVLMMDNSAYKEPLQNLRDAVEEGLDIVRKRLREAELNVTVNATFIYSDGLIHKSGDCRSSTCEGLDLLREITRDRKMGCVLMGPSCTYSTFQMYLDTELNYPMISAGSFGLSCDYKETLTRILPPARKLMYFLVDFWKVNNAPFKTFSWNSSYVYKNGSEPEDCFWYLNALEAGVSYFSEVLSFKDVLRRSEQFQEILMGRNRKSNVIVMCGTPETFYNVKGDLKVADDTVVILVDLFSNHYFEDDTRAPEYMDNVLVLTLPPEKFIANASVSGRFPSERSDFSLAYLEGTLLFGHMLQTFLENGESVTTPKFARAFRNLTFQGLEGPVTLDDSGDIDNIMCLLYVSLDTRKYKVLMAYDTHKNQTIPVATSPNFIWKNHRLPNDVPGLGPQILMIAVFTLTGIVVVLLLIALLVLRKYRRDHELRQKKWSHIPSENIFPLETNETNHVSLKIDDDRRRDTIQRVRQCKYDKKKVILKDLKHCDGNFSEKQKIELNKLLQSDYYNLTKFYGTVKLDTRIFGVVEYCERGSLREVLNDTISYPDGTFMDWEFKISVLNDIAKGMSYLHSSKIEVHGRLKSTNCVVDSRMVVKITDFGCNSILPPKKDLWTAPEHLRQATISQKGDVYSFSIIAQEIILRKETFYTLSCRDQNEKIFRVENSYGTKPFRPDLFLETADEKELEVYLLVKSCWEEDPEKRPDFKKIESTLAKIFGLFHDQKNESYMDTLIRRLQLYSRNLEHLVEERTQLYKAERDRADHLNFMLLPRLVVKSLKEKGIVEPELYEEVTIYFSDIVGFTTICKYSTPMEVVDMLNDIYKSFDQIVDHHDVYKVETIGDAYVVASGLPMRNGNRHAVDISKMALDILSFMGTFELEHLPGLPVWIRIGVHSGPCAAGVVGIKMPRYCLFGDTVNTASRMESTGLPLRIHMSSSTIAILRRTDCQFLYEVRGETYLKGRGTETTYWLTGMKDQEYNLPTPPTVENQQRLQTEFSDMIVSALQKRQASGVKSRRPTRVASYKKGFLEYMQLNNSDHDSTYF
Excerpt: (§1) SP-333 was labeled with an appropriate infrared (IR) fluorescence dye for in vivo imaging purposes. The peptide was to be labeled with an appropriate IR dye through the reaction of a N-hydroxysuccinamidyl (NHS) activated ester with the amine group of the peptide. Our initial test with the VivoTag680 NHS ester supplied by PerkinElmer, Inc was not successful. […] Labeling SP-333 with Cy3 and the subsequent HPLC purification was successful, with an overall labeling efficiency of 30% achieved. […] Both Cy3 and Cy5.5 belong to a family of cyanine fluorescence dyes used in bioimaging applications. […] We performed similar binding experiments with the cell membranes isolated from T84 cells and from rat intestinal tissues. […] Thus, SP-333-IR680 fluorescence was custom synthesized.

[2] = target: T2, cell membranes isolated from T84 cells (Homo sapiens, UniProt P25092); assay: Binding of Cy3/Cy5.5 probes to cell membranes isolated from T84 cells
T2 construct: endogenous in cells; host or cells: T84 cells, intact or as isolated cell membranes
Excerpt: as §1

[3] = target: GC-C receptor (Homo sapiens, UniProt P25092); assay: Binding of dye-conjugated SP-333 to GC-C receptors (method not specified)
Excerpt: as §1

[4] = system: rat intestinal fragments; assay: Ex vivo binding of Cy3/Cy5.5 probes with rat intestinal fragments
Excerpt: as §1

[5] = target: T3, GC-C receptors expressed on the surface of T84 cells (Homo sapiens, UniProt P25092); assay: Binding of Cy3/Cy5.5 probes to T84 cells
T3 construct: endogenous in cells; host or cells: T84 cells, intact or as isolated cell membranes
Excerpt: as §1

[6] = target: T4, Guanylate cyclase C (GC-C) receptor expressed on human T84 cells (human, UniProt P25092 24-1073); assay: competition of unlabeled SP-333 against IR680-SP-333 probe binding on T84 cells
T4 construct: whole, on cells; also called GC-C receptors

[7] = target: T5, GC-C receptor in rat intestinal tissues (rat, UniProt P23897 23-1072); assay: binding to cell membranes from rat intestinal tissues; ex vivo binding with rat intestinal fragments
T5 construct: whole, on cells; the protein target is inferred from the preceding sentence on GC-C receptors; also called cell membranes from rat intestinal tissues; rat intestinal fragments
T5 sequence (looked up): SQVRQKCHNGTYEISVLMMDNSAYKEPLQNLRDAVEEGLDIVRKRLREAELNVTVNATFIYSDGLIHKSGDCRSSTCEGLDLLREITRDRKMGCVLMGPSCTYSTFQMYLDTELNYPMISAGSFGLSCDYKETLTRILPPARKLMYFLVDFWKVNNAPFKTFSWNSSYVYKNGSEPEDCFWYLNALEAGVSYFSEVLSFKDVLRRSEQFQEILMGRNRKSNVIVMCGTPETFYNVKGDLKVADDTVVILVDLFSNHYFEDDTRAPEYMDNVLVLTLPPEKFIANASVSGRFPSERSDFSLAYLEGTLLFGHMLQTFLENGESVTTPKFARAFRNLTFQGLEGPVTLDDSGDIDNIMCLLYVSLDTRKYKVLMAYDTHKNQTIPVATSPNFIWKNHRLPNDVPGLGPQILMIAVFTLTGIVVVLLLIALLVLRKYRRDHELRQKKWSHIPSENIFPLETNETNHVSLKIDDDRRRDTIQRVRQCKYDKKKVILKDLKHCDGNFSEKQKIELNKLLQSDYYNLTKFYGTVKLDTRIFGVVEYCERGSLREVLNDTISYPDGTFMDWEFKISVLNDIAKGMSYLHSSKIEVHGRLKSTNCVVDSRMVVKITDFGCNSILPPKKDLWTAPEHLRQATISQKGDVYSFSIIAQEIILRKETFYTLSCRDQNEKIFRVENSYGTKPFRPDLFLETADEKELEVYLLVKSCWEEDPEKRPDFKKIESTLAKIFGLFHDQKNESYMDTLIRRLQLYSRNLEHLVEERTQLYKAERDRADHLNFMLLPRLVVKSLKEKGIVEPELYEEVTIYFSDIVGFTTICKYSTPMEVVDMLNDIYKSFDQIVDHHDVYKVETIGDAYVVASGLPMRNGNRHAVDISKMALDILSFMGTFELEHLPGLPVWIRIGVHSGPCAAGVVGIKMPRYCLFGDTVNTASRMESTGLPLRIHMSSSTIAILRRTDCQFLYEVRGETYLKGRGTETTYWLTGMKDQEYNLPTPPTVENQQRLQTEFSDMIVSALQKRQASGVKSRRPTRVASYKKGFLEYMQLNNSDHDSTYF

T3 sequence (P25092 24-1073): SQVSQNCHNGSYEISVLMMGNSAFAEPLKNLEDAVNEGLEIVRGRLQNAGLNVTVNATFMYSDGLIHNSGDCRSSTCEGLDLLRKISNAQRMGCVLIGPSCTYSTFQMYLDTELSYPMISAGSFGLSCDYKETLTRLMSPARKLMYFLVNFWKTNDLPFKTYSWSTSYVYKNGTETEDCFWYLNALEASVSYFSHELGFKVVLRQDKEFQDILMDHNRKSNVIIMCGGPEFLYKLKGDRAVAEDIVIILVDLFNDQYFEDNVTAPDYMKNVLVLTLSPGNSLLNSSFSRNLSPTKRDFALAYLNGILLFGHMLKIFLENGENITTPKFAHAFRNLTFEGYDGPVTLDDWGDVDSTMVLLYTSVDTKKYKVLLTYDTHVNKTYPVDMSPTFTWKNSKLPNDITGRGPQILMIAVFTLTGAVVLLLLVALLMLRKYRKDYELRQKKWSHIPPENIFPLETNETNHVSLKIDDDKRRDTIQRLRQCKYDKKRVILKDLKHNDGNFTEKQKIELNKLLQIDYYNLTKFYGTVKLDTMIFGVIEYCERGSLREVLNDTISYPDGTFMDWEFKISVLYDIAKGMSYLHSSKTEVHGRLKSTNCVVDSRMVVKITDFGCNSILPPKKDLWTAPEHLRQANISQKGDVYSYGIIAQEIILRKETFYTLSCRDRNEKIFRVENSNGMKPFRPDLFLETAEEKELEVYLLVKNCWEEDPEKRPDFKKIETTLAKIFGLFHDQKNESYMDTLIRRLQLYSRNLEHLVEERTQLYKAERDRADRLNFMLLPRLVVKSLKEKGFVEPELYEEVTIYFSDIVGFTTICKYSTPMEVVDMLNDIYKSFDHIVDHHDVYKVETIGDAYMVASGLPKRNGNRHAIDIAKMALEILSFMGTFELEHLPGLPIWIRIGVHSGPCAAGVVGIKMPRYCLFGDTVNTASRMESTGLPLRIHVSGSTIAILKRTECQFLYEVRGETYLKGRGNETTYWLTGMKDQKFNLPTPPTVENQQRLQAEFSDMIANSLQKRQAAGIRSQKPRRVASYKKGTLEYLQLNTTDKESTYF
GC-C receptor, sequence (P25092 24-1073): as above
T2 sequence (P25092 24-1073): as above
T4 sequence (P25092 24-1073): as above

Molecule | specific binding to cell membranes isolated from rat intestinal tissues [1] | specific binding to cell membranes isolated from T84 cells [2] | binding to GC-C receptors after conjugation of dye to the N-terminal of SP-333 [3] | specific binding in ex vivo binding with rat intestinal fragments [4] | specific binding to GC-C receptors on the surface of T84 cells [5] | IC50 [6] [nM] | binding result [7]
Cy5.5-SP-333: SP-333 conjugated with cyanine fluorescence dye Cy5.5 NHS ester ({Cy5.5}-[dN]DECELCVNVACTGC[dL]; disulfide 4-12, 7-15) | did not show any specific binding | did not show any specific binding | without appreciable loss | lack of specific binding | failed to exhibit specific binding |  | 
Cy3-SP-333: SP-333 conjugated with cyanine fluorescence dye Cy3-NHS ester (Cy3-[dN]DECELCVNVACTGC[dL]; disulfide 4-12, 7-15) | did not show any specific binding | did not show any specific binding | without appreciable loss | lack of specific binding | failed to exhibit specific binding |  | 
[dN]DECELCVNVACTGC[dL] (disulfide 4-12, 7-15, Synthetic analog of uroguanylin; also called Api 1251) [SP-333 (dolcanatide), unlabeled] |  |  |  |  |  | ~1600 | 
Cy3-[dN]DECELCVNVACTGC[dL] (disulfide 4-12, 7-15) [Cy3-SP-333] |  |  |  |  |  |  | no binding
{Cy5.5}-[dN]DECELCVNVACTGC[dL] (disulfide 4-12, 7-15) [Cy5.5-SP-333] |  |  |  |  |  |  | no binding
